# Data taken from patent US11229713B2, “Methods and compositions for 18F-radiolabeling of biologics” (BRISTOL-MYERS SQUIBB COMPANY, priority 2014, dated 2022).
# Target: PD-L1 (Homo sapiens, UniProt Q9NZQ7)
# Experiment: In vitro autoradiography blocking study in human lung tumor and xenograft tissue sections
# Set-up: PD-L1-positive L2987 human lung carcinoma cells or PD-L1-negative HT-29 human colorectal adenocarcinoma cells; endogenous in cells; host or cells: L2987 human lung carcinoma cells (HT-29 as PD-L1-negative control)
# Details: A02 0.025-25 nM, non-PD-L1 binding adnectin 25 nM, 1 hour room temperature
# Protocol: Human lung tumor tissues were embedded in OCT and chilled in 2-methylbutane for 2-5 minutes until frozen. The samples were stored in −80° C. degree freezer until use. Human xenograft tissues were also included in the assay. Mice bearing bilateral xenografts were produced by introducing 4×10^6 PD-L1(+) L2987 cells and 1.5×10^6 PD-L1(−) HT-29 t cells subcutaneously into opposite flanks of nu/nu mice. Once resulting xenograft tumors reached appropriate size (approx. 200-300 mm^3) mice were anesthetized with 2% isoflurane and sacrificed via cervical dislocation. Fresh tumor tissues were excised, immersed into OCT and chilled in 2-methylbutane for 2-5 minutes until frozen. The tissues were then wrapped in foil/ZIPLOC® bag and stored at −80° C. until use. For all tissues (human lung tumor and xenografts) sections of 5 μm thickness (collected as 2 sections/slide) were cut using a cryostat, thaw-mounted on glass microscope slides, and allowed to air dry for approximately 30 minutes.
# Blocking studies with cold (unlabeled) A02 adnectin at 0.025 nM, 0.25 nM, 2.5 nM and 25 nM respectively and 25 nM non-PD-L1 binding adnectin were conducted using the following conditions. […] Autoradiography signal from tissue-associated radioactivity was quantified from these ROIs.
# Chain of PD-L1 (Q9NZQ7 19-290): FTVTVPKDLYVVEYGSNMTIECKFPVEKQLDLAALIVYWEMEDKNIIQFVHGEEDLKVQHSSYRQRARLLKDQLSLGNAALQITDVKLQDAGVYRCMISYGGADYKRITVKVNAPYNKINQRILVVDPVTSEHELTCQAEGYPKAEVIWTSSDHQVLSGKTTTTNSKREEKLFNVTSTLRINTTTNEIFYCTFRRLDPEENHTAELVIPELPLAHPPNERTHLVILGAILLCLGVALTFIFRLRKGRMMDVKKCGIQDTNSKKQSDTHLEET
molecule,measurement,value
"A02 adnectin: anti-PD-L1 Adnectin, SEQ ID NO: 2, cold (unlabeled) (protein, Synthetic 18F-radiolabeled PD-L1 Adnectin, A02) EVVAATPTSLLISWSYDGPIDRYYRITYGETGGNSPVQEFTVPPDQKTATISGLKPGVDYTITVYAVRLEEAHYNREFPISINYRTPC",displacement / blockade of 0.25 nM ^18F-A02 adnectin radioligand compared to total binding,dose dependent displacement
